Test results from PMC11952319.

Columns and labels:
Experiment in all cases: BLI
[1] = biological target: M15 triple mutant with all three light chain mutations (S32I, G51A, T57I) reverted to germline (human)
[2] = biological target: M15 single reverted mutant T57I (light chain residue 57 reverted to the germline residue) (human)
[3] = biological target: M15 single reverted mutant G51A (light chain residue 51 reverted to the germline residue) (human)
[4] = biological target: M15 single reverted mutant S32I (light chain residue 32 reverted to the germline residue) (human)

SARS-CoV-2 WA1/2020 S2 protein (stabilized prefusion SARS-CoV-2 spike S2 trimer) (from UniProt P0DTC2) (domain or fragment)
fold decrease in binding affinity compared to M15 [1]: 12 fold
fold decrease in binding affinity compared to M15 [2]: 1.02 fold
fold decrease in binding affinity compared to M15 [3]: 1.88 fold
fold decrease in binding affinity compared to M15 [4]: 1.45 fold
